The text below walks through data of US20230242651A1 (published 2023).

In assay [1] the target is T1, human TNF (human, UniProt P01375 77-233). Nature of the assay: SPR, scFv; footnote: interference with SPR measurement.
The target of assay [2] is T1, human TNF. Nature of the assay: SPR, scFv. A general note: SPR reads the build-up and loss of mass on a sensor chip optically.

By Kd is commonly meant a measure of binding affinity in units of concentration. By koff is commonly meant the rate constant with which the complex falls apart. A low value points to slow dissociation. As usually defined, the kon is the second-order rate constant of association. A higher kon goes with faster complex formation.

T1 sequence (P01375 77-233 limits assumed): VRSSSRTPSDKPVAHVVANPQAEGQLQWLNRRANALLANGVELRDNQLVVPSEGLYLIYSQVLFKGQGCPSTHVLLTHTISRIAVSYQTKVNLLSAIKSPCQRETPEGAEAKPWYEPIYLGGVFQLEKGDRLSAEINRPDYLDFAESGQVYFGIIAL

B1: VK3/VH3 consensus λ-capped, TNF-specific scFv (scFv)
scFv: DIVLTQSPATLSLSPGERATLSCQASQSISDWLAWYQQKPGQAPRLLIYGASRLASGVPARFSGSGSGTDFTLTISSLEPEDFAVYYCQQGWSDSYVDNLFGGGTKLTVLGGGGGSGGGGSGGGGSGGGGSEVQLVESGGGLVQPGGSLRLSCAASGFSLSSGAMSWVRQAPGKGLEWVSVIISSGATYYASWAKGRFTISRDNSKNTLYLQMNSLRAEDTAVYYCARGGPDDSNSMGTFDPWGQGTLVTVSS
In assay [1], B1 registered a Kd of 1.82 nM, a koff of 0.000529 s⁻¹ and an on-rate (kon) of 290000 M⁻¹ s⁻¹.

B2: VK1/VH3 consensus uncapped, TNF-specific scFv (scFv)
scFv: DIQMTQSPSSLSASVGDRVTITCQASQSISDWLAWYQQKPGKAPKLLIYGASRLASGVPSRFSGSGSGTDFTLTISSLQPEDFATYYCQQGWSDSYVDNLFGQGTKVEIKRGGGGSGGGGSGGGGSGGGGSEVQLVESGGGLVQPGGSLRLSCAASGFSLSSGAMSWVRQAPGKGLEWVSVIISSGATYYASWAKGRFTISRDNSKNTLYLQMNSLRAEDTAVYYCARGGPDDSNSMGTFDPWGQGTLVTVSS
notes: also called control molecule (Vκ1/VH3 consensus)
Consider B2, for which, in assay [2], binding was characterised by a dissociation constant (Kd) of 0.265 nM, the off-rate constant (koff) came to 0.000105 s⁻¹ and the association rate constant (kon) is 395000 M⁻¹ s⁻¹.
